From patent publication US20190077860A1 (EISAI R AND D MANAGEMENT, published 2019)

T1: human EphA3 extracellular region-SEAP-His protein (human, UniProt P29320 21-541)
T1 construct: extracellular domain; also called hEphA3-SEAP-His
T1 sequence (looked up): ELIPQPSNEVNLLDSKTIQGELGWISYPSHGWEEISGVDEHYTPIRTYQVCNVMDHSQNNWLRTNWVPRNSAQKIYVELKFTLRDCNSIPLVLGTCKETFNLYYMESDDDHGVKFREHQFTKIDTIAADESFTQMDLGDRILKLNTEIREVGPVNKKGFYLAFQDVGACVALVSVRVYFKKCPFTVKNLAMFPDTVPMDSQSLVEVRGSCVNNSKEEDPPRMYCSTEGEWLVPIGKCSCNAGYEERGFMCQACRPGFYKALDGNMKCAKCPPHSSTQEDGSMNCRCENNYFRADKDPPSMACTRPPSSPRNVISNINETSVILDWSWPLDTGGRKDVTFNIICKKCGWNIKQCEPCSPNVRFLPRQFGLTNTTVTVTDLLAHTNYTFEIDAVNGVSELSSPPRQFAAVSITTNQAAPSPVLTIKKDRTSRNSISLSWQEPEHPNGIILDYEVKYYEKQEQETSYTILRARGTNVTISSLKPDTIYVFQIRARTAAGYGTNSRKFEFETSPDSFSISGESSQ

T2: human EphA1 extracellular region-SEAP-His protein (human, UniProt P21709 26-547)
T2 construct: extracellular domain; also called hEphA1-SEAP-His
T2 sequence (looked up): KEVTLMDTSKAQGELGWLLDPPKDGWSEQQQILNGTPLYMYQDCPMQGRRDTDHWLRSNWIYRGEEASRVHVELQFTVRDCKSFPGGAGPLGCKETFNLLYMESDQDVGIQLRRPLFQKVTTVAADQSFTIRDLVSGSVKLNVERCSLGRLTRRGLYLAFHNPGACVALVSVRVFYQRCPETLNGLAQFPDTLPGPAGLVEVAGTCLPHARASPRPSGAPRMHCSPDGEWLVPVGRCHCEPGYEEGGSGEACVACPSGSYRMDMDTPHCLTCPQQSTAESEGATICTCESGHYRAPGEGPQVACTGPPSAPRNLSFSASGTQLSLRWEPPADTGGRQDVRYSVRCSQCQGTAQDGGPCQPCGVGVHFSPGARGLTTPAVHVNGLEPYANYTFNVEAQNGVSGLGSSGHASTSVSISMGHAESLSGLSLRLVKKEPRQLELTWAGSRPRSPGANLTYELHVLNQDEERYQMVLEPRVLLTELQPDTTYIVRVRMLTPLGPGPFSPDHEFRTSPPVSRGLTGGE

T3: human EphB3 extracellular region-SEAP-His protein (human, UniProt P54753 34-559)
T3 construct: extracellular domain; also called hEphB3-SEAP-His
T3 sequence (looked up): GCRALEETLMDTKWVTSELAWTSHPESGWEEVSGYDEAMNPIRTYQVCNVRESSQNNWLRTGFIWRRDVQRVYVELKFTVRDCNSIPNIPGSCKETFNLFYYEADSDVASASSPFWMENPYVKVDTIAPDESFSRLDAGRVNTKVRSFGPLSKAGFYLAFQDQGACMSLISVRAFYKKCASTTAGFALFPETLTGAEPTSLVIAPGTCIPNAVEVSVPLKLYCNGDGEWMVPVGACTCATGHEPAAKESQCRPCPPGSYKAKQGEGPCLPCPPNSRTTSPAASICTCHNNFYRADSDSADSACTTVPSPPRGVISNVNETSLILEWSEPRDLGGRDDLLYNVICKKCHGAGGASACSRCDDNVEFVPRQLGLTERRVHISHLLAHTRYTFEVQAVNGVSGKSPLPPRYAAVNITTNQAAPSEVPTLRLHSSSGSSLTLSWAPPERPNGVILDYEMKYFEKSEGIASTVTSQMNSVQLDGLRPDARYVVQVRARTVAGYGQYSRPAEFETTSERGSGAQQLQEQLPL

T4: human EphB2 extracellular region-SEAP-His protein (human, UniProt P29323 19-543)
T4 construct: extracellular domain; also called hEphB2-SEAP-His
T4 sequence (looked up): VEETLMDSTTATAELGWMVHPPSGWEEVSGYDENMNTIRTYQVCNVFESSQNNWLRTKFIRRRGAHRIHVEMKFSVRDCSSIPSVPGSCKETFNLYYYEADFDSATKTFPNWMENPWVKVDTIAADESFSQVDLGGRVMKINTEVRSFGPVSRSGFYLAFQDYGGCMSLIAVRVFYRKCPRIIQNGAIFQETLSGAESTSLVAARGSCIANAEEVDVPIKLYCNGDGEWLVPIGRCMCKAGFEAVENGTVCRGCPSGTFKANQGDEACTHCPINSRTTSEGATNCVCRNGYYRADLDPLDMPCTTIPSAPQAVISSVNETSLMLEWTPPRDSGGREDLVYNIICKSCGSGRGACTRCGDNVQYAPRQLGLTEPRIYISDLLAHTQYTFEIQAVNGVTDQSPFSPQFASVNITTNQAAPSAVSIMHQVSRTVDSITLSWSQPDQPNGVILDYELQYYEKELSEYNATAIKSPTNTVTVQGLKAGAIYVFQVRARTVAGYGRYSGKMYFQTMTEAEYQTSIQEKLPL


What was measured:
Assay in all cases: ELISA
[1] = biological target: T1, human EphA3 extracellular …
[2] = biological target: T2, human EphA1 extracellular …
[3] = biological target: T3, human EphB3 extracellular …
SEAP-His = SEAP-His (UniProt P05187 23-511)
[4] = biological target: T4, human EphB2 extracellular …
[5] = biological target: T5, human EphA5 extracellular region-SEAP-His protein (human, UniProt P54756 25-573)
T5 construct: extracellular domain; also called hEphA5-SEAP-His
T5 sequence (P54756 25-573): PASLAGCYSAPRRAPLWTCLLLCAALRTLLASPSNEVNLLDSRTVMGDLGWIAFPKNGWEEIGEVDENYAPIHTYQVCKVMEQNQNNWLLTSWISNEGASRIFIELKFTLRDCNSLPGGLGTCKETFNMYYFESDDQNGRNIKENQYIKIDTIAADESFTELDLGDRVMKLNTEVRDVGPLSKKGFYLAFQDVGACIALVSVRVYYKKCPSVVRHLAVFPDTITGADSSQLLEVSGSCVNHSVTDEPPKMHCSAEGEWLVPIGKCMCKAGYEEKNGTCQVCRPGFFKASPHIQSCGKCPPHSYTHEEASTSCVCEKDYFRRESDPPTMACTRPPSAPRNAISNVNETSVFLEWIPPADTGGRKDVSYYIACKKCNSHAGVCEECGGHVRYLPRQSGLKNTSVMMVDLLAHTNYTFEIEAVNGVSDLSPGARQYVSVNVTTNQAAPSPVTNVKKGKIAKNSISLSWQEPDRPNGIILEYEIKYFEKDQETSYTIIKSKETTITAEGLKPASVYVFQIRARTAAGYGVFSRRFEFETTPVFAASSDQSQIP

Sequence of SEAP-His (P05187 23-511): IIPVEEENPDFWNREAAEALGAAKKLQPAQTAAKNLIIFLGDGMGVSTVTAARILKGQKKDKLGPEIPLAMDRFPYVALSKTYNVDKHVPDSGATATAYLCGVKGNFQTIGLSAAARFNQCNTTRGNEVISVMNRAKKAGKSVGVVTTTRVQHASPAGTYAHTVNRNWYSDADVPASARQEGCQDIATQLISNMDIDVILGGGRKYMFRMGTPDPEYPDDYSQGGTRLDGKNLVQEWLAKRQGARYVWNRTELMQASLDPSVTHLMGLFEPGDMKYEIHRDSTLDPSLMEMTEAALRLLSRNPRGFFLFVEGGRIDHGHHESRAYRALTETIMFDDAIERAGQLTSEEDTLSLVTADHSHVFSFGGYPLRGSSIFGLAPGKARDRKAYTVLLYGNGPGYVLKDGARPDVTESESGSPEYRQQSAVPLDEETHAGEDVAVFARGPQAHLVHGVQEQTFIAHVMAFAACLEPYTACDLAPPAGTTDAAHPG

A450 as % of hEphA4-SEAP-His [1] [%]	A450 as % of hEphA4-SEAP-His [2] [%]	A450 as % of hEphA4-SEAP-His [3] [%]	A450 as % of hEphA4-SEAP-His (SEAP-His) [%]	A450 as % of hEphA4-SEAP-His [4] [%]	A450 as % of hEphA4-SEAP-His [5] [%]	Binder
6.4	6.2	6.4	6.1	6.2	6.1	humanized antibody No. 157 (antibody, human IgG2, human Ig kappa; also called L1-6/HA1) heavy: QVQLVQSGSELKKPGASVKVSCKASGYTFTDYSMHWVRQAPGQGLEWMGWINTETGEPTYAQGFTGRFVFSLDTSVSTAYLQISSLKAEDTAVYYCARIPLYYYGSRYWYFDVWGQGTTVTVSSASTKGPSVFPLAPSSRSTSESTAALGCLVKDYFPEPVTVSWNSGALTSGVHTFPAVLQSSGLYSLSSVVTVPSSNFGTQTYTCNVDHKPSNTKVDKTVERKSCVECPPCPAPPAAAPSVFLFPPKPKDTLMISRTPEVTCVVVDVSHEDPEVQFNWYVDGVEVHNAKTKPREEQFNSTFRVVSVLTVVHQDWLNGKEYKCKVSNKGLPAPIEKTISKTKGQPREPQVYTLPPSREEMTKNQVSLTCLVKGFYPSDIAVEWESNGQPENNYKTTPPMLDSDGSFFLYSKLTVDKSRWQQGNVFSCSVMHEALHNHYTQKSLSLSPG light: DIQMTQSPSSLSASVGDRVTITCRASENIYRNLAWYQQKPGKAPQLLLYAATNLADGVPSRFSGSGSGTDYTLTISSLQPEDFATYYCQHFWGTPWTFGQGTKVEIKRTVAAPSVFIFPPSDEQLKSGTASVVCLLNNFYPREAKVQWKVDNALQSGNSQESVTEQDSKDSTYSLSSTLTLSKADYEKHKVYACEVTHQGLSSPVTKSFNRGEC
6.5	6.5	6.5	6.3	6.3	6.7	humanized antibody No. 158 (antibody, human IgG2, human Ig kappa; also called L1-6/HA2) heavy: QVQLVQSGSELKKPGASVKVSCKASGYTFTDYSMHWVRQAPGQGLKWMGWINTETGEPTYAQGFTGRFVFSLDTSVSTAYLQISSLKAEDTAVYYCARIPLYYYGSRYWYFDVWGQGTTVTVSSASTKGPSVFPLAPSSRSTSESTAALGCLVKDYFPEPVTVSWNSGALTSGVHTFPAVLQSSGLYSLSSVVTVPSSNFGTQTYTCNVDHKPSNTKVDKTVERKSCVECPPCPAPPAAAPSVFLFPPKPKDTLMISRTPEVTCVVVDVSHEDPEVQFNWYVDGVEVHNAKTKPREEQFNSTFRVVSVLTVVHQDWLNGKEYKCKVSNKGLPAPIEKTISKTKGQPREPQVYTLPPSREEMTKNQVSLTCLVKGFYPSDIAVEWESNGQPENNYKTTPPMLDSDGSFFLYSKLTVDKSRWQQGNVFSCSVMHEALHNHYTQKSLSLSPG light: DIQMTQSPSSLSASVGDRVTITCRASENIYRNLAWYQQKPGKAPQLLLYAATNLADGVPSRFSGSGSGTDYTLTISSLQPEDFATYYCQHFWGTPWTFGQGTKVEIKRTVAAPSVFIFPPSDEQLKSGTASVVCLLNNFYPREAKVQWKVDNALQSGNSQESVTEQDSKDSTYSLSSTLTLSKADYEKHKVYACEVTHQGLSSPVTKSFNRGEC
5.4	5.4	5.5	5.3	5.4	5.5	humanized antibody No. 159 (antibody, human IgG2, human Ig kappa; also called L1-6/HK2) heavy: QVQLVQSGSELKKPGASVKVSCKASGYTFTDYSMHWVRQAPGQGLKWMGWINTETGEPTYADDFKGRFVFSLDTSVSTAYLQISSLKAEDTAVYYCARIPLYYYGSRYWYFDVWGQGTTVTVSSASTKGPSVFPLAPSSRSTSESTAALGCLVKDYFPEPVTVSWNSGALTSGVHTFPAVLQSSGLYSLSSVVTVPSSNFGTQTYTCNVDHKPSNTKVDKTVERKSCVECPPCPAPPAAAPSVFLFPPKPKDTLMISRTPEVTCVVVDVSHEDPEVQFNWYVDGVEVHNAKTKPREEQFNSTFRVVSVLTVVHQDWLNGKEYKCKVSNKGLPAPIEKTISKTKGQPREPQVYTLPPSREEMTKNQVSLTCLVKGFYPSDIAVEWESNGQPENNYKTTPPMLDSDGSFFLYSKLTVDKSRWQQGNVFSCSVMHEALHNHYTQKSLSLSPG light: DIQMTQSPSSLSASVGDRVTITCRASENIYRNLAWYQQKPGKAPQLLLYAATNLADGVPSRFSGSGSGTDYTLTISSLQPEDFATYYCQHFWGTPWTFGQGTKVEIKRTVAAPSVFIFPPSDEQLKSGTASVVCLLNNFYPREAKVQWKVDNALQSGNSQESVTEQDSKDSTYSLSSTLTLSKADYEKHKVYACEVTHQGLSSPVTKSFNRGEC
